# Measurements from patent publication US20250034268A1.
# Tests used:
# [1] = molecular target: human BCMA expressed on the cell surface (human) (UniProt Q02223); experiment: flow cytometry on AMO1 cells
# [2] = molecular target: human BCMA expressed on the cell surface (human) (UniProt Q02223); experiment: flow cytometry on H929 cells
# [3] = molecular target: human BCMA expressed on the cell surface (human) (UniProt Q02223); experiment: flow cytometry on L363 cells
# [4] = molecular target: human BCMA expressed on the cell surface (human) (UniProt Q02223); experiment: flow cytometry on U266 cells
# [5] = molecular target: human BCMA expressed on the cell surface (human) (UniProt Q02223); experiment: flow cytometry on MM.1s cells
# [6] = molecular target: human BCMA expressed on the cell surface (human) (UniProt Q02223); experiment: flow cytometry on RPMI8226 cells
# [7] = molecular target: human BCMA expressed on the cell surface (human) (UniProt Q02223); experiment: flow cytometry on hBCMA-CHO-GS cells
# [8] = molecular target: mouse BCMA expressed on CHO GS cells (mouse) (UniProt O88472); experiment: flow cytometry on mBCMA-CHO-GS cells
# [9] = molecular target: cynomolgus monkey BCMA expressed on CHO GS cells (cynomolgus monkey); experiment: flow cytometry on cynoBCMA-CHO-GS cells
# cynomolgus monkey BCMA expressed on CHO GS cells (cynomolgus monkey), sequence (chain, as listed by the source): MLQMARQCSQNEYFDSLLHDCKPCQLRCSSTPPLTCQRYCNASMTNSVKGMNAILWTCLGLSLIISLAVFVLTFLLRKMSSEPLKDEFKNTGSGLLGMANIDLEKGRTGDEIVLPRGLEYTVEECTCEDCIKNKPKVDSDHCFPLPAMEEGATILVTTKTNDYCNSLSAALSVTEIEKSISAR
# human BCMA expressed on the cell surface (human), sequence (Q02223 whole entry): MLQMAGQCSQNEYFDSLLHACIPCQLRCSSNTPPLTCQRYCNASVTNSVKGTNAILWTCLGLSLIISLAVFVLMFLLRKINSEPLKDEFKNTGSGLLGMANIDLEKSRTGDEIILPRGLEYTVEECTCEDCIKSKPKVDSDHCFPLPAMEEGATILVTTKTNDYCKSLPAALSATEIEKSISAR
# mouse BCMA expressed on CHO GS cells (mouse), sequence (O88472 whole entry): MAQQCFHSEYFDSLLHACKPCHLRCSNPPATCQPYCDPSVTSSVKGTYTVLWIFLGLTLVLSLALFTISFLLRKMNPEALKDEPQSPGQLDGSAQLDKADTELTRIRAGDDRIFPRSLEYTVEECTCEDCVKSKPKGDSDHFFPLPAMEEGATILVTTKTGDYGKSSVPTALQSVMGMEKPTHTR
substance,measurement,setting,value
"GSK PG antibody (BCMA antibody clone J6M0 of GSK, P329G human IgG1)",EC50,[1],12.9 nM
same,EC50,[2],7.69 nM
same,EC50,[3],10.4 nM
same,EC50,[4],8.74 nM
same,EC50,[5],7.54 nM
same,EC50,[6],5.97 nM
same,EC50,[7],5 nM
same,EC50,[8],132 nM
same,EC50,[9],10 nM
